This is an account of results in patent US20150344570A1 (published 2015).

To fix the notation:
B1: GpH7-B3 variant K334_07I/GpL16-k0 (antibody, human IgG1, kappa)
heavy: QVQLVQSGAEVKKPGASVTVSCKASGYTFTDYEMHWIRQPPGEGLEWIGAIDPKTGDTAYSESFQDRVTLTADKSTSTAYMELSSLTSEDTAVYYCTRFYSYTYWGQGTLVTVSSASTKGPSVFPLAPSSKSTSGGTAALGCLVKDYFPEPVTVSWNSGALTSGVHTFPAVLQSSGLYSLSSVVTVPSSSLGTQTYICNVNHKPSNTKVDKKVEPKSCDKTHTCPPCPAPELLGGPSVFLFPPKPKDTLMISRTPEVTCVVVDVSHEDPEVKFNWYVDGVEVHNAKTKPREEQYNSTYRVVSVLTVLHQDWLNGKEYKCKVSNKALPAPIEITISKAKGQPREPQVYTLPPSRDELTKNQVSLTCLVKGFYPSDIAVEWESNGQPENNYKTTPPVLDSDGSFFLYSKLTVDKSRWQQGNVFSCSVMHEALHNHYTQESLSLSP
light: DIVMTQSPLSLPVTPGEPASISCQASESLVHSNRNTYLHWYLQKPGQSPQLLIYKVSNRFSGVPDRFSGSGSGTDFTLKISRVEAEDVGVYYCSQNTHVPPTFGQGTKVEIERTVAAPSVFIFPPSDEQLKSGTASVVCLLNNFYPREAKVQWKVDNALQSGNSQESVTEQDSKDSTYSLSSTLTLSKADYEKHKVYACEVTHQGLSSPVTKSFNRGEC
notes: also called Ho Ab K334_07I
B2: GpH7-B3 variant K334_13S/GpL16-k0 (antibody, human IgG1, kappa)
heavy: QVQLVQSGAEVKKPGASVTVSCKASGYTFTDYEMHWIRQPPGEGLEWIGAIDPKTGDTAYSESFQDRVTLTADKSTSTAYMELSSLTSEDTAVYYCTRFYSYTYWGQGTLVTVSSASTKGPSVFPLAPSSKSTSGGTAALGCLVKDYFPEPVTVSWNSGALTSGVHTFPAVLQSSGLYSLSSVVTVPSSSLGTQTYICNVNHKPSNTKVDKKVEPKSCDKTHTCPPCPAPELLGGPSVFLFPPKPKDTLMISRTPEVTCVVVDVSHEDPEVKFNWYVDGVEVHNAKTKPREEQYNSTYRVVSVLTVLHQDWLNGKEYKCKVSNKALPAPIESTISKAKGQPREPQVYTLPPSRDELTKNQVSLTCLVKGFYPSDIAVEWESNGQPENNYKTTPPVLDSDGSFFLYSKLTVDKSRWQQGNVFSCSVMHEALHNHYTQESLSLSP
light: DIVMTQSPLSLPVTPGEPASISCQASESLVHSNRNTYLHWYLQKPGQSPQLLIYKVSNRFSGVPDRFSGSGSGTDFTLKISRVEAEDVGVYYCSQNTHVPPTFGQGTKVEIERTVAAPSVFIFPPSDEQLKSGTASVVCLLNNFYPREAKVQWKVDNALQSGNSQESVTEQDSKDSTYSLSSTLTLSKADYEKHKVYACEVTHQGLSSPVTKSFNRGEC
notes: also called Ho Ab K334_13S
B3: GpH7-B3 variant S337_09D/GpL16-k0 (antibody, human IgG1, kappa)
heavy: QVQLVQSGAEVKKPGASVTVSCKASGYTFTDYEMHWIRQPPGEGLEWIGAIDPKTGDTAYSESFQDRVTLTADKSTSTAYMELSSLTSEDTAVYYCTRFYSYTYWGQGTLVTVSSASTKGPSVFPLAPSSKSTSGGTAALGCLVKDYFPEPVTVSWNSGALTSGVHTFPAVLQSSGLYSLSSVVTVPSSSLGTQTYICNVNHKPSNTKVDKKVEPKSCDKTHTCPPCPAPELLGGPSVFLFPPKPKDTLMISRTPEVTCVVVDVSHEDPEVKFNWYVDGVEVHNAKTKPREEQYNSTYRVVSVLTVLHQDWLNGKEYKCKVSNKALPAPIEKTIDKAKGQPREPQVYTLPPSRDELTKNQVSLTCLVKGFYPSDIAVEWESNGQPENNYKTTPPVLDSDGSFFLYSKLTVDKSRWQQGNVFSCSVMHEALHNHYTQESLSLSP
light: DIVMTQSPLSLPVTPGEPASISCQASESLVHSNRNTYLHWYLQKPGQSPQLLIYKVSNRFSGVPDRFSGSGSGTDFTLKISRVEAEDVGVYYCSQNTHVPPTFGQGTKVEIERTVAAPSVFIFPPSDEQLKSGTASVVCLLNNFYPREAKVQWKVDNALQSGNSQESVTEQDSKDSTYSLSSTLTLSKADYEKHKVYACEVTHQGLSSPVTKSFNRGEC
notes: also called Ho Ab S337_09D
B4: GpH7-B3 variant K334_14T/GpL16-k0 (antibody, human IgG1, kappa)
heavy: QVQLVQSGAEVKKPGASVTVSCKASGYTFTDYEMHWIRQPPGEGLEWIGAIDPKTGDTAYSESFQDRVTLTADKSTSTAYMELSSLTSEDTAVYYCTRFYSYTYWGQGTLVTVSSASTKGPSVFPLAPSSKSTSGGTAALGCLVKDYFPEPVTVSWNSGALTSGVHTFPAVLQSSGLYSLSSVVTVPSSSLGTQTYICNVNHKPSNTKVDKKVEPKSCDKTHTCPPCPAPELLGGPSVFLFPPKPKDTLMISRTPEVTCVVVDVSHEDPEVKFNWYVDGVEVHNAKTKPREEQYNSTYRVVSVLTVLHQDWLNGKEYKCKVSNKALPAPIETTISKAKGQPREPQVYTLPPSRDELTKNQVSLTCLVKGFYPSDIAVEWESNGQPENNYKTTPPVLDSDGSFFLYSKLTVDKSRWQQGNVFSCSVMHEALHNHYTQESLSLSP
light: DIVMTQSPLSLPVTPGEPASISCQASESLVHSNRNTYLHWYLQKPGQSPQLLIYKVSNRFSGVPDRFSGSGSGTDFTLKISRVEAEDVGVYYCSQNTHVPPTFGQGTKVEIERTVAAPSVFIFPPSDEQLKSGTASVVCLLNNFYPREAKVQWKVDNALQSGNSQESVTEQDSKDSTYSLSSTLTLSKADYEKHKVYACEVTHQGLSSPVTKSFNRGEC
notes: also called Ho Ab K334_14T
B5: GpH7-B3 variant S267_09D/GpL16-k0 (antibody, human IgG1, kappa)
heavy: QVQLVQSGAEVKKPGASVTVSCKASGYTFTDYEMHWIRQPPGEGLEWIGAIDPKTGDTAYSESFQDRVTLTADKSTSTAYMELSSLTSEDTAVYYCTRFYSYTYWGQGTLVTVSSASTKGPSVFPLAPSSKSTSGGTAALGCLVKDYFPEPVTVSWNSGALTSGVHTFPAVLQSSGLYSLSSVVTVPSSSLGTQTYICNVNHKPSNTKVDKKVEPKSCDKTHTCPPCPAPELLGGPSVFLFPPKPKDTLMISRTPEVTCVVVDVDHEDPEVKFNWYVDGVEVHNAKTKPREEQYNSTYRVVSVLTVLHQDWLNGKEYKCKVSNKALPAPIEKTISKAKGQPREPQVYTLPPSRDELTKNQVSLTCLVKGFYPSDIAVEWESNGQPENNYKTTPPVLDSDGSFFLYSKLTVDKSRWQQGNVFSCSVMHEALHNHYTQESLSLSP
light: DIVMTQSPLSLPVTPGEPASISCQASESLVHSNRNTYLHWYLQKPGQSPQLLIYKVSNRFSGVPDRFSGSGSGTDFTLKISRVEAEDVGVYYCSQNTHVPPTFGQGTKVEIERTVAAPSVFIFPPSDEQLKSGTASVVCLLNNFYPREAKVQWKVDNALQSGNSQESVTEQDSKDSTYSLSSTLTLSKADYEKHKVYACEVTHQGLSSPVTKSFNRGEC
notes: also called Ho Ab S267_09D
B6: GpH7-B3 variant K334_09D/GpL16-k0 (antibody, human IgG1, kappa)
heavy: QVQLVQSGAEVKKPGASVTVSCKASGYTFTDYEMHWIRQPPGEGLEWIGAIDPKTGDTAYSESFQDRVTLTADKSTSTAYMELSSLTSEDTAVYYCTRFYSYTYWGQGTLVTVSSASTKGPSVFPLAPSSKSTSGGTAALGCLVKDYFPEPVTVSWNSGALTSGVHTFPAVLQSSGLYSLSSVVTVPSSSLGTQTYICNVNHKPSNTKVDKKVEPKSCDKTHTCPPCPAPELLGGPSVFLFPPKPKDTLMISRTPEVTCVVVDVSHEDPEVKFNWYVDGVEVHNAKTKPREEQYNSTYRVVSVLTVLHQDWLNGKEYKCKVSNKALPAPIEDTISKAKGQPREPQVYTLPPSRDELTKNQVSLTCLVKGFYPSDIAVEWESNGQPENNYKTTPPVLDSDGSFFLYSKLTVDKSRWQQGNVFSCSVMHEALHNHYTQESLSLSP
light: DIVMTQSPLSLPVTPGEPASISCQASESLVHSNRNTYLHWYLQKPGQSPQLLIYKVSNRFSGVPDRFSGSGSGTDFTLKISRVEAEDVGVYYCSQNTHVPPTFGQGTKVEIERTVAAPSVFIFPPSDEQLKSGTASVVCLLNNFYPREAKVQWKVDNALQSGNSQESVTEQDSKDSTYSLSSTLTLSKADYEKHKVYACEVTHQGLSSPVTKSFNRGEC
notes: also called Ho Ab K334_09D
B7: GpH7-B3 variant K334_08L/GpL16-k0 (antibody, human IgG1, kappa)
heavy: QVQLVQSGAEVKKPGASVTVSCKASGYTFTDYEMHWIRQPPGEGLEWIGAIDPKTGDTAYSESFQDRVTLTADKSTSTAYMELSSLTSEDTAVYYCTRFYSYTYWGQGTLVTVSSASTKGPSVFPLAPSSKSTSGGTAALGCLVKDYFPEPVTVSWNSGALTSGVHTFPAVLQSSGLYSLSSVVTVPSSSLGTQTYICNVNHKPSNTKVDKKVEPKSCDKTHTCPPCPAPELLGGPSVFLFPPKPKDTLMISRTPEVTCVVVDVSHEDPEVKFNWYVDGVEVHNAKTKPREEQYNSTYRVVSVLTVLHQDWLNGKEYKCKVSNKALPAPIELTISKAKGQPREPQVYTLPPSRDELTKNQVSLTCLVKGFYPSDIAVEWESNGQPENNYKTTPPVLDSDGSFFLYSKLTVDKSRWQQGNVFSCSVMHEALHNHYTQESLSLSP
light: DIVMTQSPLSLPVTPGEPASISCQASESLVHSNRNTYLHWYLQKPGQSPQLLIYKVSNRFSGVPDRFSGSGSGTDFTLKISRVEAEDVGVYYCSQNTHVPPTFGQGTKVEIERTVAAPSVFIFPPSDEQLKSGTASVVCLLNNFYPREAKVQWKVDNALQSGNSQESVTEQDSKDSTYSLSSTLTLSKADYEKHKVYACEVTHQGLSSPVTKSFNRGEC
notes: also called Ho Ab K334_08L
B8: GpH7-B3 variant K334_10E/GpL16-k0 (antibody, human IgG1, kappa)
heavy: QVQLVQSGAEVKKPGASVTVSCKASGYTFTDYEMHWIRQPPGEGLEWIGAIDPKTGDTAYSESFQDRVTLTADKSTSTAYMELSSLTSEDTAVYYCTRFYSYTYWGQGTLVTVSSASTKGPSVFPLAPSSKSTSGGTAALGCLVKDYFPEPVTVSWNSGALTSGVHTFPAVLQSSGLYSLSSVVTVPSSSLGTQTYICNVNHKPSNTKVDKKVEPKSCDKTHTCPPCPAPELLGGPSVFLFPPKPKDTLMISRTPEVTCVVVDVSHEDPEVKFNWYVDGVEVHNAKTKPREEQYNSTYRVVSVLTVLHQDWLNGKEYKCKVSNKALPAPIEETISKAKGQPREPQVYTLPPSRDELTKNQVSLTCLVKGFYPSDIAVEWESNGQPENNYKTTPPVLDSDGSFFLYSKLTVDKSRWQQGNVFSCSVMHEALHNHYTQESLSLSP
light: DIVMTQSPLSLPVTPGEPASISCQASESLVHSNRNTYLHWYLQKPGQSPQLLIYKVSNRFSGVPDRFSGSGSGTDFTLKISRVEAEDVGVYYCSQNTHVPPTFGQGTKVEIERTVAAPSVFIFPPSDEQLKSGTASVVCLLNNFYPREAKVQWKVDNALQSGNSQESVTEQDSKDSTYSLSSTLTLSKADYEKHKVYACEVTHQGLSSPVTKSFNRGEC
notes: also called Ho Ab K334_10E
B9: GpH7-B3 variant K334_16H/GpL16-k0 (antibody, human IgG1, kappa)
heavy: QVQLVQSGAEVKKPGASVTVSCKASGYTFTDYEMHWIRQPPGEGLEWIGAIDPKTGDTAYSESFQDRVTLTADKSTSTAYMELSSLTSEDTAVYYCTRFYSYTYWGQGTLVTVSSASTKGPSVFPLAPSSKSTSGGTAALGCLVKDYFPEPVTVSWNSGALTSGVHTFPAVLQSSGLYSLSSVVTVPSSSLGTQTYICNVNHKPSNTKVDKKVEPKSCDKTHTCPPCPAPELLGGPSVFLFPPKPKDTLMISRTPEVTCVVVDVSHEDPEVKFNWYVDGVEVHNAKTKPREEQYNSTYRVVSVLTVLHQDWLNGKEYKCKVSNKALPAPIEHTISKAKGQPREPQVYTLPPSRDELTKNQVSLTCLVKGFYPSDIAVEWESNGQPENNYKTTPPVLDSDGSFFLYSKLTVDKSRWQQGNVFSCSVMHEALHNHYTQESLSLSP
light: DIVMTQSPLSLPVTPGEPASISCQASESLVHSNRNTYLHWYLQKPGQSPQLLIYKVSNRFSGVPDRFSGSGSGTDFTLKISRVEAEDVGVYYCSQNTHVPPTFGQGTKVEIERTVAAPSVFIFPPSDEQLKSGTASVVCLLNNFYPREAKVQWKVDNALQSGNSQESVTEQDSKDSTYSLSSTLTLSKADYEKHKVYACEVTHQGLSSPVTKSFNRGEC
notes: also called Ho Ab K334_16H
B10: GpH7-B3 variant T335_07I/GpL16-k0 (antibody, human IgG1, kappa)
heavy: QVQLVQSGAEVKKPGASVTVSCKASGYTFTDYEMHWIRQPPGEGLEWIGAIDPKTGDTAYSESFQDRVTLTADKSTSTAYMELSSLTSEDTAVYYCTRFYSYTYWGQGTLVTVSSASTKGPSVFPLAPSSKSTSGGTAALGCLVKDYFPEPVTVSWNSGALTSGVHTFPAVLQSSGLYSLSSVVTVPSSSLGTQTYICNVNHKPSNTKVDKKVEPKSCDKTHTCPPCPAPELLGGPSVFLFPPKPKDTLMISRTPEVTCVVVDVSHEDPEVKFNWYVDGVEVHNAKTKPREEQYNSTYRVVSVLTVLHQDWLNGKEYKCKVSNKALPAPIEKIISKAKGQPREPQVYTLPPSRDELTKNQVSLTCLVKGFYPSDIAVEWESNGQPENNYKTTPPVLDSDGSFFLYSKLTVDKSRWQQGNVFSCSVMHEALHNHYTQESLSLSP
light: DIVMTQSPLSLPVTPGEPASISCQASESLVHSNRNTYLHWYLQKPGQSPQLLIYKVSNRFSGVPDRFSGSGSGTDFTLKISRVEAEDVGVYYCSQNTHVPPTFGQGTKVEIERTVAAPSVFIFPPSDEQLKSGTASVVCLLNNFYPREAKVQWKVDNALQSGNSQESVTEQDSKDSTYSLSSTLTLSKADYEKHKVYACEVTHQGLSSPVTKSFNRGEC
notes: also called Ho Ab T335_07I

The target of the experiment is T1, FcγRIIIa extracellular domain with C-terminal His tag (human, UniProt P08637 17-208).
T1 construct: extracellular domain; also called FcgRIIIa; 3a; not shown: His tag attached to the C terminus
T1 sequence (P08637 17-208): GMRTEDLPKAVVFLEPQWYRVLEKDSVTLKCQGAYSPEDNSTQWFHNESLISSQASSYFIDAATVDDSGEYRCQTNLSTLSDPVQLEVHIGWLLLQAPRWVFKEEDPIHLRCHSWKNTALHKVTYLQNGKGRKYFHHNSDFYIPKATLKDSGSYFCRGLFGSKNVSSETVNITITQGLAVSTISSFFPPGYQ
Briefly: SPR Biacore, captured antibody, FcγR analyte, relative binding. The protocol: Analysis of interaction between objective antibody and the FcγR was carried out using Biacore T100 (GE Healthcare). HBS-EP+ (GE Healthcare) was used as the running buffer, and the measurement temperature was set to 25° C. Chips produced by immobilizing the antigen peptide by the amine coupling method to a Series S Sencor Chip CM5 (GE Healthcare), or alternatively, chips produced by allowing preliminarily biotinylated antigen peptides to interact with and immobilize onto a Series S Sensor Chip SA (certified) (GE Healthcare) were used. Antibodies of interest were captured onto an antigen peptide-immobilized chip, and allowed to interact to each FcγR diluted with running buffer. To regenerate and repeatedly use the chip, the antibodies captured on the chip were washed off by reacting 10 mM glycine-HCl, pH 1.5.
For orientation: In SPR one partner is held on a chip, and binding of the other changes the refractive index at the surface.
As to B1, the Ho/Con_3a is 180 % of HoCon Ab GpH7-B3/GpL16-k0 (=100).

With B2, the Ho/Con_3a was 153 % of HoCon Ab GpH7-B3/GpL16-k0 (=100). With B3, the Ho/Con_3a is 106 % of HoCon Ab GpH7-B3/GpL16-k0 (=100). Consider B4, for which the Ho/Con_3a is 163 % of HoCon Ab GpH7-B3/GpL16-k0 (=100).

Consider B5, for which the Ho/Con_3a is 160 % of HoCon Ab GpH7-B3/GpL16-k0 (=100). With B6, the Ho/Con_3a is 150 % of HoCon Ab GpH7-B3/GpL16-k0 (=100).

Take B7: the Ho/Con_3a was 178 % of HoCon Ab GpH7-B3/GpL16-k0 (=100). Consider B8, for which the Ho/Con_3a is 206 % of HoCon Ab GpH7-B3/GpL16-k0 (=100). Next, B9: 153 % of HoCon Ab GpH7-B3/GpL16-k0 (=100). Regarding B10, the Ho/Con_3a was 107 % of HoCon Ab GpH7-B3/GpL16-k0 (=100).
